In US20200109194A1 (BLUEFIN BIOMEDICINE, published 2020):
Numbering of substitutions follows the chain as printed.

B1: 30C10-PBD (antibody, human IgG1, V domains shown)
VH: QVQLVESGGGVVQPGRSLRLSCAASGFTFSSYGMHWVRQAPGKGLEWVAVIWYDGSDKYYADSVKGRFTISRDNSKKTLYLQMNSLRAEDTAVYFCARETIFRGLTITFFDHWGQGTLVTVSS
VL: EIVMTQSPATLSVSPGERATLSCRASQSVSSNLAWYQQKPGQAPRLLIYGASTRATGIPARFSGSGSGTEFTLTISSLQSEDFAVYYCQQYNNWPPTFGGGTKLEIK
modifications: MA-PEG8-VA-PAB-SG3199 (PBD) on TCEP-reduced hinge region thiols, sites not stated; DAR 1.7
B2: 31B7 (antibody, human IgG1, V domains shown)
VH: QVQLVESGGGVVQPGRSLRLSCAASGFTFSSYGMHWVRQAPGKGLEWVAVIWYNGINKYYADSVKGRFTISRDASKNTLYLQMNSLRAEDTAVYYCAREGLLWFGGMDVWGQGTTVTVSS
VL: EIVLTQSPLSLPVTPGEPASISCRSSQSLLHSNGYNYLHWYLQKPGQSPQLLIYLGSNRASGVPDRFSGSRSGTDFTLKIIRVEAEDVGVYYCMQALQTPYTFGQGTKLEIK
B3: M10 (antibody, human IgG1, V domains shown)
VH: QVQLVESGGGGVQPGRSLRLSCAASGFTFSRYGMHWVRQAPGKGLEWVAVIWYDGSDEYYADSVKGRFTISRDNSKNTLYLQMNSLRAEDTAVYYCARETMGRGIIISYFDYWGQGTPVTVSS
VL: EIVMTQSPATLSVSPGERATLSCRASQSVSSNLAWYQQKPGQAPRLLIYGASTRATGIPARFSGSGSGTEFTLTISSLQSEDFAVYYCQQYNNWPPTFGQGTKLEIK
B4: 30C10 (antibody, human IgG1, V domains shown)
VH: B1 VH
VL: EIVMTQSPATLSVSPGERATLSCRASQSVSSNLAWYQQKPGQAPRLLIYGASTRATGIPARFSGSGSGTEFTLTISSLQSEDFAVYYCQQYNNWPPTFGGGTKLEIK
B5: M1F1 (antibody, human IgG1, V domains shown)
VH: QVQLQESGPGLVKPSETLSLTCAVSGYSISSGYFWGWIRQPPGKKLEWIGSIYHSGSTYYNPSLKSRVTMSVDTSKNQFSLKLSSVTAADTAVYYCAREGDCSGGICYWYFDLWGRGTLVTVSS
VL: EIVMTQSPATLSVSPGERATLSCRASQSVSSNLAWYQQKPGQAPRLLIYGASTRATGIPARFSGSGSGTEVTLTISSLQSEDFAVYYCQQYNKWPLTFGGGTKVEIK
B6: 34B7 (antibody, human IgG1, V domains shown)
VH: QVQLVESGGGVVQPGRSLRLSCAASGFTFTSYGMHWVRQAPGKGLEWVAVVWYEGNSKFYIDSVKGRFIISRDNSKNTLYLQMNSLRAEDTAVYYCARAYCGDDCYPFDYWGQGTLVTVSS
VL: DIQMTQSPSSLSASVGDRVTITCRASQGISNYLAWYQQKPGKVPKLLIYAASTLQSGVPSRFSGSGSGTDFTLTISSLQPEDVATYYCQKYNSAPWTFGQGTKLEIK
B7: 36H6 (antibody, human IgG1, V domains shown)
VH: QVQLVESGGGVVQPGRSLRLSCAASGFTFSDYGMHWVRQAPGKGLEWVAVIWYEGGNKYYTDSVKGRFTISRDNSKNTLYLQMNSLRAEDTAVYYCARILLWFGESYGMDVWGQGTTVTVSS
VL: B6 VL with S93N, L104V

Each binder was assayed against T1, endogenous human TMEFF1 on cancer cell lines (H69, HCC1187, PA-1, H526, H1048) (human, UniProt Q8IYR6 40-380) (assay: cell-based or functional assay).
T1 sequence: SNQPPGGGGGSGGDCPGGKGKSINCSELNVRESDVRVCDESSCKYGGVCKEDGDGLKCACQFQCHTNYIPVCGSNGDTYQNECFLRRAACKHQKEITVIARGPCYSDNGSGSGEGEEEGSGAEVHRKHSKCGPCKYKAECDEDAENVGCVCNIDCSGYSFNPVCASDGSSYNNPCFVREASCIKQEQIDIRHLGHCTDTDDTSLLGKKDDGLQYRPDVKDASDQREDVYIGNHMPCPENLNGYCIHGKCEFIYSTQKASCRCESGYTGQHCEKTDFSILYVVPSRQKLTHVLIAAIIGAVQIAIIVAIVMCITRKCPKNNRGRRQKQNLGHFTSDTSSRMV

In the case of B1, the “IC50 of growth of H526 cells (CellTiter Glo, 5 days)” value is reported as 4.27 ng/mL.

In the case of B1, the “IC50 of growth of H1048 cells (CellTiter Glo, 5 days)” value is reported as 0.53 ng/mL.

Each binder was assayed against T2, human TMEFF1 extracellular domain recombinant protein (plasmid BBP377, S40-V330, C-terminal 8xHis) (human, UniProt Q8IYR6 40-330) (assay: BLI (Octet Red), antibody on Protein A biosensor, recombinant hTMEFF1 ECD as analyte).
T2 construct: Secreted from CHO cells with a non-native signal peptide (not part of the mature protein); also called hTMEFF1 ECD; hTMEFF1-ECD
T2 sequence: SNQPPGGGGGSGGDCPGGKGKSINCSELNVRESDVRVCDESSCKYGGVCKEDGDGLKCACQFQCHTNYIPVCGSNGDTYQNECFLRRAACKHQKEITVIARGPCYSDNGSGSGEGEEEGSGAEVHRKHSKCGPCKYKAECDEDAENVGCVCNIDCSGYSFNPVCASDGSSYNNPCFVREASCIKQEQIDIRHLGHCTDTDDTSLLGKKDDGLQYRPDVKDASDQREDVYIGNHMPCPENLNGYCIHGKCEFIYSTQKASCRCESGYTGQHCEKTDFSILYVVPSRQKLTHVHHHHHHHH
Procedure: (§1) The affinity of antibodies to various recombinant TMEFF1 protein was determined on an Octet Red™ instrument. After loading reagents into a 96-well plate, the Octet Red™ with Protein A-conjugated biosensors was programmed as follows: 30 seconds for baseline #1; 120 seconds to immobilize the antibody; 30 seconds for baseline #2; 300 seconds for association of antibody to recombinant TMEFF1; and 300-600 seconds for dissociation of recombinant TMEFF1 from the antibody.
Affinity of thirteen antibodies was calculated using hTMEFF1 ECD recombinant protein by Octet™.

First: B2
Second: B3
The Kd of the first is 4.8-fold higher: 43 nM for the first, 9 nM for the second. The second binds more tightly here.

First: B4
Second: B5
The Kd of the first is 4.8-fold lower: 4 nM for the first, 19 nM for the second. The first binds more tightly here.

Going from B6 to B7, the Kd rises from 20 nM to 51 nM (2.5-fold). The first binds more tightly here.

These binders were tested against T3, Macaca fascicularis TMEFF1 extracellular domain recombinant protein (plasmid BBP480, S40-V330, C-terminal … (Macaca fascicularis)) (assay: BLI (Octet Red), antibody on Protein A biosensor, recombinant cyTMEFF1 ECD as analyte).
T3 construct: range 40-330; also called cyTMEFF1 ECD; monkey TMEFF1 ectodomain
Procedure: as §1
Affinity of 7 antibodies was calculated using cyTMEFF1 ECD recombinant protein by Octet™.

First: B2
Second: B3
The Kd of the first is 14-fold higher: 101 nM for the first, 7 nM for the second.

First: B4
Second: B5
The Kd of the first is 3.9-fold lower: 7 nM for the first, 27 nM for the second. The first binds more tightly here.

First: B6
Second: B7
The Kd of the first is 4.4-fold lower: 22 nM for the first, 96 nM for the second. The first binds more tightly here.
